Patent US8420776B2, “Ube2G2 binding domain in the ubiquitin ligase gp78 and methods of use thereof” (The United States of America, as Represented by the …, priority 2004, dated 2013)
Where a chain is given by its changes, count along the chain named.

Assays:
[1] = target: T1, lysine 48-linked (K48) tetra-ubiquitin (Homo sapiens, UniProt P0CG47); assay: Tetra-ubiquitin binding to GST fusions; details: anti-ubiquitin immunoblot
T1 construct: 1 μg K48 tetra-ubiquitin produced as described (Piotrowski et al., 1997); made in house
Procedure: GST fusions were purified from E. Coli. Binding was carried out using equi-molar amount of fusion proteins measured by Commassie blue staining. Generally, 20 picomoles/sample were used. In vitro translated E2 was generated by coupled transcription and translation using 35S methionine in either wheat germ or rabbit reticulocyte lysate. Binding assays using in vitro translated E2 was carried out by incubating GST protein pre-bound to Glutathione-sepharose 4B with […] of ^35S-methionine labeled E2 in binding buffer (25 mM Tris-HCl, pH 7.4; 50 mM NaCl, 5 mM DTT; and 0.5% NP-40) overnight at 4° C. Beads were washed with binding buffer and resolved by SDS-PAGE under reducing conditions. Analysis was by Storm PhosphoImager (Applied Biosystems, Foster City, Calif.). Direct binding assays used wild type His6-MmUbc7 (His6-Ube2G2) and Glutathione-sepharose bound GST fusions. Beadbound GST protein was incubated with 100 ng purified His6-MmUbc7 in binding buffer and washed and eluted as above. After transfer to Hybond-P (Amersham Biosciences) binding was assessed with anti-His6 followed by Enhanced Chemiluminescence ECL; Pierce). Ubiquitin binding studies were performed with binding and washing as above using 1 μg K48 tetra-ubiquitin produced as described (Piotrowski et al., 1997). Detection was by anti-ubiquitin immunoblotting.

ERAD substrate CD3-δ = assay: CD3-δ level in co-transfected cells by immunoblotting; format: cell-based; details: for effect on CD3-δ level (stabilization): co-transfection with CD3-δ, immunoblot; for reversal of G2BD-induced CD3-δ stabilization by co-transfected Ube2G2: cells expressing Flag-tagged gp78 574-643, 2 or 4 μg Ube2G2 plasmid
Procedure: (§1) Transfections of HT1080, NIH 3T3 and HEK 293T cells were carried out ˜24 hr after plating using Polyfect (Qiagen, Valencia, Calif.) and cells harvested after ˜48 hr. J558 cells were transfected by electroporation using Bio-rad GENE pulser II at settings of 250 v, 950uF. Vector without insert was used to equalize total plasmid. In most experiments 0.15 μg of pEGFP-C1 served as an internal control. For experiments not involving immunoprecipitation, 6×10^5 cells were plated in 6 well plates and cell lysis was with Mammalian Protein Extraction Reagent (Pierce). For immunoprecipitation, 2.4×10^6 cells were seeded in 100 mm dishes and cells were lysed in RIPA buffer (1×PBS, 1% Nonidet P40. 0.5% sodium deoxycholate, 0.1% SDS). Lysis buffers were supplemented with Protease Inhibitor Cocktail (Sigma) and 10 mM iodoacetamide. Supernatants were analyzed after a 10,000×g centrifugation using standard techniques for immunoprecipitation, SDS-PAGE, immunoblotting and ECL. Treatment of cells with MG132 (Sigma) was at 50 μM for eight hr. Cycloheximnide was used at 50 μg/ml. All cells were collected at the end of the six hr chase.
FIG. 7 depicts the stabilization of CD3-δ protein in cells transfected with the G2BD, but not with the G2BD with amino acids 579-584 (of SEQ ID NO:2) mutated. HEK 293T cells were transfected with the ERAD substrate CD3-δ along with the indicated GFP fusions of gp78. The left and right sides are two separate experiments.
To test this, GFP fusions of either a minimal E2 binding domain (GFP-574-611) or a more extended region that includes the C-terminus of gp78 (GFP-574-643) were evaluated (FIG. 21A). […] To assess this further, the C-terminal region of gp78 was fused to the eight amino acid Flag tag. […] Mdm2 is a RING finger E3 for both itself and p53 that is neither an ERAD substrate nor known to utilize Ube2G2 as an E2. […] To establish with certainty that the effect observed with expression of the Ube2G2 binding site is a consequence of binding endogenous E2, and not due to other unanticipated effects, cells were co-transfected with increasing amounts of Ube2G2 (FIG. 21C, lanes 3 and 4). […] These findings clearly establish that the isolated E2 binding site has the potential to markedly alter ERAD of CD3-δ. To ensure the effect observed was not peculiar to one substrate, TCR-α was evaluated (FIG. 21D).

Myc-Ube2G2 = target: T2, Myc-Ube2G2 (Mus musculus, UniProt P60605); assay: Co-immunoprecipitation with co-expressed Myc-Ube2G2 in cells; format: cell-based; details: anti-Myc IP, anti-gp78 IB; MG132 8 hr
T2 construct: expressed in transfected cells; host or cells: HEK 293T
T2 sequence (P60605 1-165): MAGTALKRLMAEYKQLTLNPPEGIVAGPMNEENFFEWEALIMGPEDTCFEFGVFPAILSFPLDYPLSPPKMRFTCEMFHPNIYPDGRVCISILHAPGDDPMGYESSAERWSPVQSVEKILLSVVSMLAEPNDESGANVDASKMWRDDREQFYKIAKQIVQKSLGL
Procedure: as §1
FIG. 5 depicts the results of immunoprecipitation of Ube2G2 (MmUbc7) from HEK 293T cells co-transfected with a plasmid encoding myc-tagged MmUbc7/Ube2G2 together with s plasmid encoding various forms of gp78. HEK 293T cells were transfected with a plasmid encoding myc-tagged MmUbc7/Ube2G2 together with plasmids encoding various forms of gp78. After 48 hours, cells were harvested and co-immuntoprecipitated with an anti-Myc tage. Anti-gp78 was used for detection. “R2M” indicates a mutation of two crucial residues in the RING finger. “T” indicates C terminal truncations at the indicated amino acids. ΔB is the mutation indicated above in FIG. 4 in the context of the full length gp78 and “Cue12M” indicates mutations in the Cue domain of gp78.
To confirm the significance of the Ube2G2 binding site in cells, a variety of mutations and truncations of full-length gp78 were tested for binding of co-expressed Myc-Ube2G2 (FIG. 19A). Cells were treated with the proteasome inhibitor MG132 in an attempt to equalize levels of the various forms of gp78.

B1: Cue-m1: GST fusion of complete C-terminal region of gp78 with MFP to GGR mutation of residues 467 to 469 (protein)
chain: IRRHKNYLRVVGNMEARFAVATPEELAVNNDDCAICWDSMQAARKLPCGHLFHNSCLRSWLEQDTSCPTCRMSLNIADNNRVREEHQGENLDENLVPVAAAEGRPRLNQHNHFFHFDGSRIASWLPSFSVEVMHTTNILGITQASNSQLNAMAHQIQEGGRQVPYHLVLQDLQLTRSVEITTDNILEGRIQVPFPTQRSDSIRPALNSPVERPSSDQEEGETSAQTERVPLDLSPRLEETLDFGEVEVEPSEVEDFEARGSRFSKSADERQRMLVQRKDELLQQARKRFLNKSSEDDAASESFLPLEGASSDPVTLRRRMLAAAAERRLQKQQTS
modifications: left off: a dimerising Fc or GST
binding of K48 tetra-ubiquitin [1]: total loss of ubiquitin binding

B2: Cue-m2: GST-gp78 fusion with VLQDL to RLQVD mutation of residues 476 to 480 (protein)
chain: B1 chain with G159M, G160F, R161P, V168R, D171V, L172D
modifications: left off: a dimerising Fc or GST
binding of K48 tetra-ubiquitin [1]: total loss of ubiquitin binding

B3: GFP-574-643: GFP fusion of a more extended region that includes the C-terminus of gp78, residues 574-643 (protein, listed as Homo sapiens)
chain: SADERQRMLVQRKDELLQQARKRFLNKSSEDDAASESFLPLEGASSDPVTLRRRMLAAAAERRLQKQQTS
effect on CD3-δ level (stabilization) (ERAD substrate CD3-δ): dramatically stabilized CD3-δ

B4: Flag-tagged gp78 residues 574-643: C-terminal region of gp78 fused to the eight amino acid Flag tag (protein)
chain: B3 chain
modifications: left off: small tags and cut ends
notes: C-terminal region of gp78 fused to the eight amino acid Flag tag
effect on CD3-δ level (stabilization) (ERAD substrate CD3-δ): marked stabilization of CD3-δ

B5: 435-507: GST fusion of amino acids 435-507 of gp78, the Cue domain region (protein)
chain: SFSVEVMHTTNILGITQASNSQLNAMAHQIQEMFPQVPYHLVLQDLQLTRSVEITTDNILEGRIQVPFPTQRS
modifications: left off: a dimerising Fc or GST
notes: GST fusion of amino acids 435-507 of gp78, the Cue domain region
binding of K48 tetra-ubiquitin [1]: sufficient to bind tetra-ubiquitin

B6: gp78576: gp78 truncated after amino acid 576 of SEQ ID NO:2 (protein, listed as Homo sapiens)
chain: MPLLFLERFPWPSLRTYTGLSGLALLGTIISAYRALSQPEAGPGEPDQLTASLQPEPPAPARPSAGGPRARDVAQYLLSDSLFVWVLVNTACCVLMLVAKLIQCIVFGPLRVSERQHLKDKFWNFIFYKFIFIFGVLNVQTVEEVVMWCLWFAGLVFLHLMVQLCKDRFEYLSFSPTTPMSSHGRVLSLLVAMLLSCCGLAAVCSITGYTHGMHTLAFMAAESLLVTVRTAHVILRYVIHLWDLNHEGTWEGKGTYVYYTDFVMELTLLSLDLMHHIHMLLFGNIWLSMASLVIFMQLRYLFHEVQRRIRRHKNYLRVVGNMEARFAVATPEELAVNNDDCAICWDSMQAARKLPCGHLFHNSCLRSWLEQDTSCPTCRMSLNIADNNRVREEHQGENLDENLVPVAAAEGRPRLNQHNHFFHFDGSRIASWLPSFSVEVMHTTNILGITQASNSQLNAMAHQIQEMFPQVPYHLVLQDLQLTRSVEITTDNILEGRIQVPFPTQRSDSIRPALNSPVERPSSDQEEGETSAQTERVPLDLSPRLEETLDFGEVEVEPSEVEDFEARGSRFSKSAD
E2 association of full-length gp78 forms with co-expressed Myc-Ube2G2 (Myc-Ube2G2): loss of E2 binding

B7: Ube2G2: ubiquitin conjugating enzyme Ube2G2 expressed from co-transfected plasmid (protein, listed as Homo sapiens)
chain: T2 sequence (P60605 1-165)
reversal of G2BD-induced CD3-δ stabilization by co-transfected Ube2G2 (ERAD substrate CD3-δ): dose-dependent reversal of CD3-δ stabilization
reversal of G2BD-induced CD3-δ stabilization by co-transfected Ube2G2 (ERAD substrate CD3-δ; listed as Ube2G2/MmUbc7): reversed
